Results taken from article PMC10344781.

Target: T1, single-chain mouse Trp2/H2-K^b (scpMHC), biotinylated (mouse | not stated)
T1 chain 1: SVYDFFVWL
T1 chain 2: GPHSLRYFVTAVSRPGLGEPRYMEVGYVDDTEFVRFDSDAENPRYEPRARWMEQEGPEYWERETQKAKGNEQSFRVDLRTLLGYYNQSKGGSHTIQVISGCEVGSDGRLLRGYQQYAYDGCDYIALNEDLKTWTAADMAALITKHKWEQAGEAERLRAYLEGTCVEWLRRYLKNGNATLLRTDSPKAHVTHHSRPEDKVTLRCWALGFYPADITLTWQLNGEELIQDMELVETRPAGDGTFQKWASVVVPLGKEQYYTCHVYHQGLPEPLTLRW
T1 chain 3: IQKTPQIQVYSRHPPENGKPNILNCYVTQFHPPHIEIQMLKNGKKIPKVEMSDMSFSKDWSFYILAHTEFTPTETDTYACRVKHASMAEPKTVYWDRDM
Assay: SPR
Conditions: modification not given, biotin on the biotinylation tag (BirA)

B1: mIgG2a clone 13 (wild-type mIgG2a) (protein)
chain 1: EVLLQQSGPELVKPGASVKIPCKASGYTFTDYYMDWVKQSHGKSLEWIGLINPNNGGTVYNQKFKGKATLTVDKSSSAAYMEVRSLTSEDTAVYYCARKPYTGHPAWFAYWGQGTLVTVSA
chain 2: DIQVTQSSSSFSVSLGDRVTITCKASEDIYNRLAWYQQKPGNAPRLLISGATSLETGVPDRFSGSGSRKDYTLIITSLQTEDVATYYCQQYYAFPLTFGAGTKLELK
B1 gave a Kd of 2.5 nM and a koff of 0.00143 s⁻¹.

B2: purified scFv13 (Trp2/H2-K^b TCRm scFv clone 13) (protein)
chain 1: EVLLQQSGPELVKPGASVKIPCKASGYTFTDYYMDWVKQSHGKSLEWIGLINPNNGGTVYNQKFKGKATLTVDKSSSAAYMEVRSLTSEDTAVYYCARKPYTGHPAWFAYWGQGTLVTVSA
chain 2: DIQVTQSSSSFSVSLGDRVTITCKASEDIYNRLAWYQQKPGNAPRLLISGATSLETGVPDRFSGSGSRKDYTLIITSLQTEDVATYYCQQYYAFPLTFGAGTKLELK
B2 was tested, and the Kd (scFv) was 8.6 nM and the koff (scFv) was 0.00121 s⁻¹.
